# Reference: US5824638A, “Oral insulin delivery” (Shire Laboratories, Inc., priority 1995, dated 1998)
# System: Caco-2 cells
# Assay: Transport of insulin across Caco-2 cell monolayers (Transwell, apical to basal, RIA)
# Assay type: in vitro ADME, human
# Settings: initial transport experiments, data not shown
# Source text: The Caco-2 cell line has been established as the primary screening model for oral peptide delivery. Caco-2 cells are derived from a colon cancer and differentiate in culture to form intestinal epithelium similar to that found in the small intestine. The cells form a monolayer with many of the specific properties of the epithelial lining of the intestine: they form a brush border with normal enzymes, they form tight junctions between cells, and they acquire the barrier properties of an enterocyte sheet. When grown on permeable supports these cells can be used to screen drug microemulsion formulations.
# Caco-2 colon carcinoma cells were obtained from American Type Culture Collection (Rockville, Md.) and maintained in culture in high glucose DMEM with 10% fetal calf serum, plus pen/strep, at 37° C., in 5% CO2. Cells were subcultured roughly every 5-7 days, 1:3 in T75 flasks, or when cells were 80-90% confluent, as determined by visual inspection. […]
# For transport determinations, insulin transport enhancers were added to HBSS plus calcium and magnesium. […] Transport was measured by taking aliquots from the lower compartment, which was in contact with the basal surface of the cells. […] Aliquots were removed from each well and insulin levels determined by RIA and HPLC. Transport was calculated as percent transport per hour from top to bottom. […]
substance,measurement,value
^125 I labeled insulin: iodine-125 labeled insulin used in initial transport experiments,Transport of labeled insulin across Caco-2 cells,no increase in transport
